pKd: −log10 of the molar value. Ends that are not written are not given here.
Key:
EGF [1] = target: T1, EGF (Homo sapiens, UniProt P01133); assay: Dot blotting analysis, EGF spotted on membrane, probed with biotinylated peptide and Streptavidin-HRP; assay type: binding; design: Recombinant Human Epidermal Growth Factor (EGF); purchased Abcam plc, Cambridge, Mass; settings: EGF 10 nM spotted; biotinylated peptide 10 ng/mL; Streptavidin-HRP, TMB
Experimental: EGF (1 microliter of a 10 nM solution in PBS was spotted a nitrocellulose membrane (obtained from Thermo Fisher Scientific) and the membrane was dried in air for about 30 minutes. The membrane was then incubated in 15 mL of blocking buffer (3 wt. % BSA in PBS) for one hour at room temperature. The membrane was washed three times (15 minutes for each wash) with 15 mL portions of fresh PBST. The washed membrane was incubated with Biotinylated SEQ ID NO: 1 [10 mL of a 10 ng/mL solution in blocking buffer (3 wt. % BSA in PBS)] with gentle agitation for one hour. The membrane was again washed three times (15 minutes for each wash) with 15 mL portions of fresh PBST. The washed membrane was incubated with Streptavidin-HRP [1:5000 dilution in 10 mL of the blocking buffer (3 wt. % BSA in PBS)] for 30 minutes with gentle agitation. Following the incubation, the membrane was washed three times (15 minutes for each wash) with 15 mL portions of fresh PBST. The washed membrane was incubated with 10 mL of the development solution for horseradish peroxidase (TMB-Blotting Substrate Solution, Pierce-Fisher Scientific) with gentle agitation. The color development was stopped by adding water.

EGF [2] = target: T1, EGF; assay: biochemical; settings: binding affinity (KD) for EGF, linker modified peptide immobilized on CM5 chip, Biacore 3000, 25° C., HBS-EP, EGF 62.5-1000 nM, 1-to-1 Langmuir fit
Experimental: “Test Method A” refers to the following general surface plasmon resonance (SPR) binding assay. Target protein (e.g., EGF and TNF-□) is immobilized at 25° C. and diluted peptides are injected for 3 min at a flow rate of 10 μl/min at 25° C. Binding assay is performed according to detailed Test method A in Examples.
The following Test Method A was used for determining the binding affinity (KD) of SEQ ID NO: 1 for EGF and TNF-□□ Binding experiments were performed using Biacore 3000 optical biosensors equipped with research-grade CM5 sensor chips (GE Healthcare Bio-Sciences Corporation). The reagents used for the amine-coupling steps [(1-ethyl-3-(3-dimethylaminopropyl)-carbodiimide (EDC); N-hydroxysuccinimide (NHS); and ethanolamine hydrochloride-NaOH (1 M, pH 8.5)] were obtained from GE Healthcare Bio-Sciences Corporation. In order to efficiently immobilize the peptide on the sensor chips, a modified version of SEQ ID NO:1 was prepared by SPPS in which a “CK” amino acid linker sequence was added to the N-terminal end of the SEQ ID NO: 1 peptide (i.e. linker modified version of SEQ ID NO: 1 for immobilization being [sequence]). A standard coupling protocol was employed to immobilize the linker modified version of SEQ ID NO: 1 via the lysine residues. The immobilization was performed at 25° C. using HBS-EP as the running buffer. […]

T1 sequence (P01133 971-1023 limits assumed): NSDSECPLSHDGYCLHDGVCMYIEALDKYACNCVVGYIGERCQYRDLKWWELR

Substance	Dot blot colour development at EGF application site (affinity for EGF) (EGF [1])	pKd (EGF [2])
Biotinylated SEQ ID NO: 1: Biotinylated version of peptide SEQ ID NO: 1, obtained from GenScript (YVSPGMKNVNWWSHWWHATD; also: biotinylated, place not given here)	A dark spot developed	–
Ac-YVSPGMKNVNWWSHWWHATD-NH2 [SEQ ID NO: 1]	–	6.15

Source: US11034728B2, “Peptides for binding epidermal growth factor” (3M INNOVATIVE PROPERTIES COMPANY, priority 2016, dated 2021)
